# According to the RNAGym collection of RNA variant scans (doi:10.1073/pnas.2313332121):
# B1: TPR t1 (parent)
# chain: GACCAAUCUGCCCUCAGAGCUCGAGAACAUCUUCGGAUGCAGAGGAGGCAGGCUUCGGUGGCGCGAUAGCGCCAACGUCCUCAACCUCCAAUGCAUCCCACCACAUGAUGAUGCCUGAAGAGCCUUGGUUUUUUG
# Variants of: B1
# Test: polymerase ribozyme fitness, log enrichment relative to wild type (log ratio); higher = more active; in vitro selection for triplet polymerase activity
# How it was run: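 Genotype fitness is the logarithm of its enrichment divided by wild-type enrichment, using inverse-variance-weighted averages of replicates. That logarithm is base 2. Enrichment was measured by Illumina sequencing of input and output libraries from one triplicate in vitro selection round, with frozen incubation at −7 °C, on PCR-built, transcribed mutant libraries of each subunit of a heterodimeric triplet polymerase ribozyme, retaining genotypes with ≥10 input reads and ≥1 read per output.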
row,Variant,polymerase ribozyme fitness (log ratio)
1,C3U U78C A105U G120C,-1.99
2,A2U U32G G60U G69A U92A C114A U116A C124G,-6.22
3,A2U G63A C86A,-4.44
4,C3U G10A G44C C49A G120U,0.0361
5,C3U C12G G71U,-0.231
6,C4A C72U U109A C115U,-6.54
7,A2U G63A A84U C86U,-3.92
8,C3U C70U G110A,-2.71
9,A2U U9C C12A G51U C53A U55A G61U U78C G127U,-6.49
10,C3A A111C G128U U129A,-1.89
11,A2G C34U,-4.37
12,C3U A41C U125A U126C,-3.37
13,C4A G45A G52C,-2.98
14,A2U G120A,-0.642
15,C3A G110C U112A G117A U132C,-6.59
16,C3U A50C C73A C85U G120U,-1.28
17,A2G C28U G93C C124G U133G,-2.71
18,C3U U7C C86A A121G,2.02
19,C3U A37U G61A G117A,-1.3
20,C3G A29U C49A G57U A121G,-2.13
21,A2U U59C C62G C94U C123A U125G,-6.19
22,A2U C12A,-3.25
23,A2U C12G,-1.36
24,C3U C11U,-0.785

row,Variant,polymerase ribozyme fitness (log ratio)
1,C4A C72U,-1.93
2,A2G G57A C104A,-3.56
3,C3U C53A C72G,-1.22
4,A2U C114U,-4.35
5,C3A,-1.22
6,C3G,-1.58
7,C3U,-0.284
8,C3G C73U A90C,-3.32
9,C3U G45A A105U,-3.3
10,C3U C20A A46G C72G G113U,-0.27
11,C3U G48A A68G,-3.84
12,A2U C11A G51A A66G G69U C98U,-4.43
13,C3U U32C C101U G120C,-0.584
14,A2G U78A,0.0128
15,C3G C12G A83C U106A,-2.23
16,C3U C72U C98A,-5.34
17,A2G C12U G47A G63U G113U,-4.51
18,C3A C12U,-0.986
19,A2G G110A C124A,-0.428
20,C3U G117A G120U,-2.21
21,A2U G65A C80G A84G C115U G117A G127U,-5.92
22,C3U C56G A83U C85A,-3.16
23,A2U G45U,-3.96
24,C3G G71C A90U A95U U112A,-3.23

row,Variant,polymerase ribozyme fitness (log ratio)
1,A2U C22G U33C C34A,-5.51
2,C3A G44A A46U C53G C115U,-6.56
3,A2G C12U A75U A111G G113A,-1.23
4,C3U G61A A91U,-1.66
5,A2U C8G,-0.639
6,C3A C40G,-2.2
7,C3U A29C G61U,-2.81
8,C3U G120A,0.234
9,C4A C72U U130A,-2.53
10,A2U U131G,-2.07
11,A2U A6G U92C A121C,-0.755
12,C3U G48C G61U,-0.989
13,A2G C11A C49G G71U C85A U92C,-2.64
14,C4A A5G,-1.02
15,A2G G42A U54G C80A U112A,-6.02
16,A2G G39U,-1.18
17,A2U C8U A41C C56G G77U G122A,-2.93
18,C3U G63A,-1.72
19,A2U A43G G45A C72G A84G A111U,-6.25
20,C3U A90G,-0.86
21,C4A C62A U92A U129A,-5.8
22,C3G U81C A111C G128A U133G,-4.61
23,A2U U32C C79A,-4.3
24,A2G C79A,-0.844

row,Variant,polymerase ribozyme fitness (log ratio)
1,C4A G36C G42C C49A C124U,-4.12
2,C3U G61U U78G U92G G120A G127U,-2.24
3,C3G G10A U106A,-2.9
4,C4A C88U G120U,-2.67
5,C3G C28U G61U G120C U125G,-4.18
6,C3G U9A C85A,-2.07
7,A2U G51C G69A A121G U132C,-6.81
8,C3U G17U C64U,-3.03
9,C3U G110U,-1.54
10,A2U U7A A46C G48A C82A G127C,-4.28
11,A2U G57C C82U C98U,-3.78
12,C4A C11G G44C U54C,-1.66
13,C3U U9A,0.706
14,C4A C40U G42C G52U G60A A119U U129A,-5.41
15,C3U U14C C62U A118G U129C,-2.13
16,C3U U54C C104A U131C,-2.52
17,A2U C94U C104U,-2.44
18,C3G C13U G36U G45A C72U U125A G127U U131C,-2.84
19,C3U U7C A18C G52A C94A,-5.04
20,C3U A16U,-2.53
21,A2U C72G C101G C124A,-2.28
22,A2U G47A C123A,-2.56
23,A2G C12U G17C U78C C86G,-4.66
24,C3U G51C G58A G63U C115G,-5.47

row,Variant,polymerase ribozyme fitness (log ratio)
1,C3A C22G A37G A111G,-4.63
2,C4A C13U A26U G44U C49A C104U,-6.34
3,C3U G39C G44A G63A G77U U78A A119G,-2.88
4,C3U C12U C89G,-1.64
5,A2U A16G C72A,-3.41
6,C3U C11A G47A C72A G110U,-2.89
7,C3U G47A G61A A84C,-0.617
8,A2G U9G U106G U112C U130A,-0.197
9,C3G A46U,-2.71
10,A2U C49A,-2.86
11,C3U C13U C85U U87A A95C,-2.29
12,A2U A5C C13U G48A G69A,-5.8
13,A2U A37C,-3.02
14,C3U G10U A41C C115U U126G,-6.14
15,C3U C20A G57A G60U G117A,-4.91
16,A2U A50G C73U U78A,-3.42
17,C3A A83C C97U G110A,-3.93
18,A2U C11G C28U G61A,-2.82
19,C4A C53G G77A C80A,-5.1
20,A2U G60A C79U C80A A121G,-5.43
21,C3A G10A A75G C86G C98U G122A,-2.58
22,A2U G23C G39A A50U G61C A91C G93C A111U,-6
23,A2U A83G,-3.47
24,C3A G39U,-2.46

row,Variant,polymerase ribozyme fitness (log ratio)
1,C4A C72U U81A G117U G122A U132A,-6.42
2,A2U G36U A41U U54G,-6.42
3,A2U C4A A43G G47C A68G G113A C124U,-6.42
4,A2U A5C G69A C86U,-6.09
5,C3G C86A,-3.1
6,C3U C28A U112A,-2.92
7,C3A G60U,-1.28
8,C3A G60A,-1.52
9,C3A G44U,-3.37
10,C3A C76G G93A C115G,-5.76
11,C3A U7C G113C,-2.78
12,A2U C62U,-2.96
13,C3A U9G G44A C62A C88G G113A C123G,-4.87
14,C3A G61U C115A,-1.78
15,C3U C8A C11A U21A C124G,1.81
16,C4A A74C C123G U133G,0.795
17,C3A C12U U54A G69U G77C,-3.81
18,C3A C13U C34A G58C G135U,-4.09
19,C3U A29G C53U G57C C86G,-4.64
20,A2G C97U G113U C114G,-3.04
21,C3G C8G C73U C101G G120U,-0.772
22,C4A C114G,-4.25
23,C3U C8A G25A C31G C70G U92A C94A C98G C99G G117U,-6.98
24,C4A G45A C72A C123A,-0.972

row,Variant,polymerase ribozyme fitness (log ratio)
1,C3A G23C C40A A84C G110C,-5.53
2,C3G U96C G113U,-6.42
3,C3U C40U A43G C53U C124U,-1.48
4,A2U C104A C124U U130A,-2.07
5,A2G C8G A121U U129G,0.138
6,A2G U14C C70U,-2.68
7,C4A,-1.19
8,C3A A5U A29G U116C,-2.92
9,C3G G39A G51U G69U C79A U130G,-3
10,A2G C4G G47A G48A C123A,-3.22
11,A2G C4G C8G G47U U54C,-3.05
12,C3G A16U U38G,-4.66
13,C3U C11A C13G A74G,-2.98
14,A2G C34A U55A C70G U112C,-5.23
15,C3A G57C G71U A90U C114A U132C,-2.98
16,A2U A18G U32C G93U C124G U133G,-2.99
17,C3U C8G G48U G93U,-0.42
18,A2U C40A,-3.29
19,C3A C12G A26U U30G G65C A121C U130C,-6.48
20,C4A A50G C70U A74G A84C C115A,-5.12
21,A2U U21A C49U,-4.09
22,A2U C12A U55G G61A C102A C104U,-4.56
23,C3A U7G U32C G60U G93C A111C,-2.96
